From patent WO2022210830A1 (dated 2022)
Read-outs that look alike come from different tables or passages of the source.

B1: 1028-30K (antibody, V domains shown)
VH: QVQLVQSGAEVKKPGSSVKVSCKASGGTFNTYAISWVRQAPGQGLEWMGGIIPIFGTANYAQKFQGRVTITADESTSTAYMELSSLRSEDTAVYYCARGEPGYCSGGNCYSSDYWGQGTLVTVSS
VL: not shown
B2: 1028-55K (antibody, V domains shown)
VH: EVQLVESGGGLVQPGGSLRLSCAASGFIVSSNYMSWVRQAPGKGLEWVSLIYSGGSTYYVDSVKGRFTISRDNTKNTLYLQMNSLRAEDTAVYYCARDLDVRGALDIWGQGTMVIVSS
VL: not shown
B3: 1028-164L (antibody, V domains shown)
VH: QVTLRESGPALVKPTQTLTLTCTFSGFSLSTSGMCVSWIRQPPGKALEWLALIDWDDDKYYSTSLKTRLTISKDTSKNQVVLTMTNMDPVDTATYYCARIPVEMATIGDYYYYGMDVWGQGTTVTVSS
VL: not shown
B4: 1028-137K (antibody, V domains shown)
VH: QVHLVESGGGVVQPGRSLRLSCAASGFTFNSYAMHWVRQAPGKGLEWVAVISYDGNNKYYADSVKGRFTISRDNSKNTLYLQMNSLRAEDTAVYYCARDDDSGSYLYYFDYWGQGTLVTVSS
VL: not shown
B5: 1028-37K (antibody, V domains shown)
VH: QVQLQQSGPGLVKPSQTLSLTCDISGDSVSSNSVAWNWIRQSPSRGLEWLGRTYYRSKWYNDYAVSVKSRITINPDTSKNQFSLQLNSVTPEDTAVYYCASGGYQLLYDDAFDIWGQGTMVTVSS
VL: not shown
B6: 1028-87L (antibody, V domains shown)
VH: not shown
VL: QAGLTQPPSVSKGLRQTATLTCTGNSNNVGNQGAAWLQQHQGHPPKLLSYRNNNRPSGISERLSASRSGNTASLTITGLQPEDEADYYCSAWDSSLSAQVFGGGTKLTVLG
B7: 1028-68L (antibody, V domains shown)
VH: QVQLVESGGGVVQPGRSLRLSCAASGFTFSSYAMHWVRQAPGKGLEWVAVISYDGSNKYYADSVKGRFTISRDNSKNTLYLQMNSLRAEDTAVYYCARADGSGWNYWGQGTLVTVSS
VL: SYELTQPPSVSVSPGQTARITCSGDPLPKQYAYWYQQKPGQAPVLVIYKDSERPSGIPERFSGSSSGTTVTLTISGVQAEDEADYYCQSADSSGTYGWEFGGGTKLTVLG
B8: 1028-05K (antibody, V domains shown)
VH: QVTLKESGPVLVKPTETLTLTCTVSGFSLSNARMGVSWIRQPPGKALEWLAHIFSNDEKSYSTSLKRRLTISKDTPKSQVVLTMTNMDPVDTATYYCARTLGFWSGEYYYYYMDVWGKGTTVTVSS
VL: EIVMTQSPATLSVSPGERATLSCRASQSVSSSYLAWYQQKPGQAPRLLIYGASTRATGIPARFSGSGSGTEFTLTISSLQSEDFAVYYCQHYNNWPPLFTFGPGTKVDIKR
B9: 1028-121K (antibody, V domains shown)
VH: QVTLKESGPVLVKPTETLTLTCTVSGFSLSDARMGVSWIRQPPGKALEWLAHIFSNDEKSYNTSLKSRLTISKDTSKSQVVLTMTNMDPVDTATYYCARALGFWSGYYYYYYMDVWGKGTTVTVSS
VL: not shown
B10: 1028-65K (antibody, V domains shown)
VH: QVQLVQSGAEVKKPGASVKVSCKASGYTFSSYYMHWVRQAPGQGLEWMGIINPSGGSTSYAQKFQGRVTMTRDTSTSTVYMELSSLRSEDTAVYFCAREGRAAAETDNNWFDPWGQGTLVTVSS
VL: not shown
B11: 0210-38L (antibody, V domains shown)
VH: EVQLVESGGGLVQPGGSLRLSCAASGFTFNSYWMSWVRQAPGKGLEWVADIKQDGSEKYYVDSVKGRFTISRDNAKNSLYLQMNSLRAEDTAVYYCARQLYYYGPIDYWGQGTLVTVSS
VL: NFMLTQPHSVSESPGKTVTISCTRSSGSIASNYVQWYQQRPGSSPTTVIYEDNQRPSGVPDRFSGSIDSSSNSASLTISGLKTEDEADYYCQSYDSNNRVFGGGTKLTVLG
B12: 0210-30L (antibody, V domains shown)
VH: QVQLVQSGAEVKKPGSSVKVSCKASGGTFSSYAINWVRQAPGQGLEWMGRIIPILGRANYAQKFQGRVTITADKSTSTAYMELSSLRSEDTAVYYCARNPEEFSSSYVYYYYMDVWGKGTTVTVSS
VL: QSALTQPRSVSGSPGQSVTISCTGTSSDVGGYSYVSWYQQHPDKAPKLMIYDVSKRPSGVPDRFSGSKSGNTASLTISGLQAEDEADYYCCSYAGSYTSWVFGGGTKLTVLG
B13: 1028-50K (antibody, V domains shown)
VH: EVQLVESGGGLVKPGGSLRLSCAASGFTFSSYIMNWVRQAPGKGLEWVSSISSSSYIYYADSVKGRFTISRDNAKNSLYLQMNSLRAEDTAVYYCARIVGATSYYYYGMDVWGQGTTVTVSS
VL: not shown
B14: 1028-61L (antibody, V domains shown)
VH: EVQLVESGGGLVQPGGSLRLSCAASGIDVSSNYMSWVRQAPGKGLEWVSVIYSGGSTYYADAVRGRFTISRHNSKNTLYLQMNSLRAEDAAVYYCARDAQRYGMDVWGQGTTVTVSS
VL: SYVLTQPPSVSVAPGKTARITCGGNNIGSNTVHWYQQKPGQAPVLVIYYDSDRPSGIPERFSGSNSGNTATLTISRVEAGDEADYYCQLWDSSSDHVVFGGGTKLTVLG
B15: 1028-29K (antibody, V domains shown)
VH: QVQLVQSGAEVKKPGASVKVSCKASGYTFTSYYMHWVRQAPGQGLEWMGIINPSGGSTSYAQKFQGRVTMTRDTSTSTVYMELSSLRSEDTAVYYCARDGTPDIVVVPAAPLDYWGQGTLVTVSS
VL: EIVLTQSPATLSLSPGERATLSCRASQSVSSYLAWYQQKPGQAPRLLIYDVSNRATGIPARFSGSGSGTDFTLTISSLEPEDFAVYYCQQRSNWPPVLTFGGGTKVEIKR
B16: 1028-106K (antibody, V domains shown)
VH: QLQLQESGPGLVKPSETLSLTCTVSGGSISSSYHYWGWIRQPPGKGLEWIGTIYYSGSTYYNPSLKSRVTISVDTSKNQFSLKLSSVTAADTAVYYCARRGYSYDSSGDGVDYWGQGTLVTVSS
VL: DIQMTQSPSSLSASVGDRVTITCRASQGIRNDLGWYQQKPGKAPKRLIYAASSLQSGVPSRFSGSGSGTEFTLTISSLQPEDFATYYCLQHNSYPLTFGGGTKVEIKR
B17: 1028-62L (antibody, V domains shown)
VH: QVQLQESGPGLVKPSGTLSLTCAVSGGSISSSNWWSWVRQPPGKGLEWIGEIYHSGSTNYNPSLKSRVTISVDKSNNQFSLKLSSVTAADTAVYYCARGWNYDYWGQGTLVTVSS
VL: QSALTQPASVSGSPGQSITISCTGTSSDVGSYNLVSWYQQHPGKAPKLMIYEGSKRPSGVSNRFSGSKSGNTASLTISGLQAEDEADYYCCSYAGSSTWVFGGGTKLTVLG
B18: 1028-84K (antibody, V domains shown)
VH: QVQLVESGGGVVQPGRSLRLSCAASGFTFSNYAMHWVFQAPGMGLEWVAVISYDGINKYYADSVKGRFTISRDNSKNTLYLQMNSLRAEDTAVYYCASHRDDYVDSADAFDIWGQGTMVTVSS
VL: not shown
B19: 0210-28K (antibody, V domains shown)
VH: QMQLVQSGPEVKKPGTSVKVSCKASGFTFSISAVQWVRQARGQRLEWIGWIVVGSGNTNYAQKFQERVTITRDMSTSTAYMELSSLRFEDTAVYYCAAPYCGGDCSDGFDIWGQGTMVTVSS
VL: not shown
B20: 1028-25K (antibody, V domains shown)
VH: QVQLVESGGGVVQPGRSLRLSCAASEFTFSGYAMHWVRQAPGKGLEWVAVISYDGINKYYADSVKGRFTISRDNSKNTLYLQMSSLRAEDTAVYYCARDPDYGDEGAFDYWGQGTLVTVSS
VL: not shown

Legend:
[1] = molecular target: T1, SARS-CoV Receptor binding domain (RBD) protein (SARS-CoV, UniProt P59594 306-527); experiment: ELISA, immobilised SARS-CoV RBD
[2] = molecular target: T2, SARS-CoV-2 N-terminal domain (NTD) protein (SARS-CoV-2, UniProt P0DTC2 14-305); experiment: ELISA, immobilised NTD
SARS-CoV-2 spike protein [3] = molecular target: T3, SARS-CoV-2 spike protein (SARS-CoV-2, UniProt P0DTC2 14-1273)
[4] = molecular target: T2, SARS-CoV-2 N-terminal domain (NTD) …; experiment: ELISA, immobilised domain protein, 200 ng/ml antibody
[5] = molecular target: T1, SARS-CoV Receptor binding domain (RBD) …; experiment: as above
SARS-CoV-2 spike protein [6] = molecular target: T3, SARS-CoV-2 spike protein; experiment: competition ELISA: antibody + biotin-ACE2 on immobilised spike
[7] = molecular target: SARS-CoV-2 spike protein, Wuhan type (WT), on pseudotype virus SARS-CoV-2 St19pv (SARS-CoV-2, UniProt P0DTC2 14-1273); experiment: cell-based or functional assay

Binder	binding result [1]	binding result [2]	also measured
B1	no binding (tested: 200 ng/ml)	no binding (tested: 200 ng/ml)	–
B2	no binding (tested: 200 ng/ml)	no binding (tested: 200 ng/ml)	IC50 (SARS-CoV-2 spike protein [3]): ~0.3 µg/mL
B3	no binding (tested: 200 ng/ml)	–	binding result [4]: binds
B4	no binding (tested: 200 ng/ml)	–	binding result [4]: binds
B5	–	no binding (tested: 200 ng/ml)	IC50 (SARS-CoV-2 spike protein [3]): ~0.7 µg/mL; binding result [5]: binds
B6	no binding (tested: 200 ng/ml)	no binding (tested: 200 ng/ml)	–
B7	no binding (tested: 200 ng/ml)	no binding (tested: 200 ng/ml)	–
B8	–	no binding (tested: 200 ng/ml)	IC50 (SARS-CoV-2 spike protein [3]): ≥ 10 µg/mL; binding result [5]: binds
B9	–	no binding (tested: 200 ng/ml)	IC50 (SARS-CoV-2 spike protein [3]): ~7.5 µg/mL; binding result [5]: binds
B10	no binding (tested: 200 ng/ml)	no binding (tested: 200 ng/ml)	–
B11	–	–	IC50 (SARS-CoV-2 spike protein [6]): ~1.5 µg/mL
B12	–	–	IC50 (SARS-CoV-2 spike protein [6]): ~0.2 µg/mL
B13	no binding (tested: 200 ng/ml)	no binding (tested: 200 ng/ml)	–
B14	no binding (tested: 200 ng/ml)	no binding (tested: 200 ng/ml)	IC50 (SARS-CoV-2 spike protein [3]): ~0.25 µg/mL
B15	no binding (tested: 200 ng/ml)	–	binding result [4]: binds
B16	no binding (tested: 200 ng/ml)	–	binding result [4]: binds
B17	no binding (tested: 200 ng/ml)	–	binding result [4]: binds
B18	no binding (tested: 200 ng/ml)	no binding (tested: 200 ng/ml)	–
B19	–	–	IC50 (SARS-CoV-2 spike protein [6]): ~0.15 µg/mL; IC50, inhibition of pseudotype virus infection, 1st experiment [7]: 0.0084 µg/mL; IC50, inhibition of pseudotype virus infection, 2nd experiment [7]: 0.0303 µg/mL
B20	no binding (tested: 200 ng/ml)	no binding (tested: 200 ng/ml)	–
